Assays:
[1] = molecular target: Microtubule polymerized from MAP-free bovine brain tubulin (GMPCPP- and taxol-stabilized, with biotinylated ends) (bovine) (UniProt Q6B856); assay: optical trapping (single-filament interaction forces); pure CB; microtubule turned by 45°, IF moved vertically; 49 filament pairs
[2] = molecular target: Microtubule polymerized from MAP-free bovine brain tubulin (GMPCPP- and taxol-stabilized, with biotinylated ends) (bovine) (UniProt Q6B856); assay: optical trapping (single-filament interaction forces); one vimentin IF and one microtubule each held between a pair of streptavidin beads; crossed perpendicularly, IF moved vertically (y-direction) at 0.55 μm/s; pure CB (1 mM EGTA, 2 mM MgCl2, 25 mM PIPES, 60 mM KCl, 2 mM sodium phosphate, pH 7.5, 0.01 mM taxol, oxygen scavenger, 20 mM DTT); 57 filament pairs
[3] = molecular target: Microtubule polymerized from MAP-free bovine brain tubulin (GMPCPP- and taxol-stabilized, with biotinylated ends) (bovine) (UniProt Q6B856); assay: optical trapping (single-filament interaction forces); as a1 (perpendicular, vertical movement) in CB with 0.1% (w/v) Triton-X 100; 38 filament pairs
[4] = molecular target: Microtubule polymerized from MAP-free bovine brain tubulin (GMPCPP- and taxol-stabilized, with biotinylated ends) (bovine) (UniProt Q6B856); assay: optical trapping (single-filament interaction forces); pure CB; perpendicular configuration, IF moved horizontally (x-direction) along the microtubule at 0.55 μm/s; 43 filament pairs
[5] = molecular target: Microtubule polymerized from MAP-free bovine brain tubulin (GMPCPP- and taxol-stabilized, with biotinylated ends) (bovine) (UniProt Q6B856); assay: optical trapping (single-filament interaction forces); as a1 (perpendicular, vertical movement) in CB with a total of 20 mM magnesium (18 mM MgCl2 added); 36 filament pairs

Sequence of UniProt Q6B856 (Q6B856 whole entry, looked up): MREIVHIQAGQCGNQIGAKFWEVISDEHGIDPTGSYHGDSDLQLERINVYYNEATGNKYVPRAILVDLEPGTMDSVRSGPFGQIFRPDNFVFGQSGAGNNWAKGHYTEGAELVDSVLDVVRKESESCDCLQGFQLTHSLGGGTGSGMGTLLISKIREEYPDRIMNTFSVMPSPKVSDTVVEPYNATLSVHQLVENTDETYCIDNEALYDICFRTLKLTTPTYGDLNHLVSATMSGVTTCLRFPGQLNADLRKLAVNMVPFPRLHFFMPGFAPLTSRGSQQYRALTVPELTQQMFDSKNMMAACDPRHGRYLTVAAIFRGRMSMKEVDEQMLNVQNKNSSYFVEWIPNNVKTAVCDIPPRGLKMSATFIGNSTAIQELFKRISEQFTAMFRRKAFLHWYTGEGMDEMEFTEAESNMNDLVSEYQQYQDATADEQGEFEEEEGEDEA

- effective binding rate r b,eff (interactions larger than 1 pN per unbound time) [1]: 0.016 s⁻¹
- effective binding rate r b,eff (interactions larger than 1 pN per unbound time) [2]: 0.011 s⁻¹
- probability of binding p IF-MT per pair of vimentin unit-length filament and tubulin dimer ([2]; scale: per pair of vimentin unit-length filament and tubulin dimer): 0.00061
- effective binding rate r b,eff (interactions larger than 1 pN per unbound time) [3]: 0.0056 s⁻¹
- effective binding rate r b,eff (interactions larger than 1 pN per unbound time) [4]: 0.024 s⁻¹
- effective binding rate r b,eff (interactions larger than 1 pN per unbound time) [5]: 0.013 s⁻¹
Substance: Vimentin intermediate filament, assembled from vimentin C328N with two additional glycines and one additional cysteine at the C-terminus (natural protein)

From article PMC8213705
